The values below come from the DeepSol protein solubility set.

This series can be described thus: soluble on expression in E. coli; label from the status in PepcDB or PDB records.
Take “MKQFVVISGKGGTGKTSVTAGLAAVGKDMVLADCDVDAADLHLVLAPEIRERHDFISGVVASIEPEACISCGLCTTHCRYGAIPQGYAPQVAPEHCEGCGVCAHVCPTGAARLSDRRCGEWYVSDTRFGPMVHAALGIGEENSGKLVSTVRTRARELAEARDASVVLIDGSPGVGCPVIASLAGADAALAVTEPTVSALHDLERVHALARHFDVRMAVLLNKADIHPGMAERIIGYCTTHDLPLVGRFGFSPLFVQAQLEGRTLPEQDSGEWRQRFNGVWNQLLALVLEHHHHHH”: the “soluble on expression in E. coli” value is on record as “not soluble”.

As for “GMGLALCGAAAQAQEKPNFLIIQCDHLTQRVVGAYGQTQGCTLPIDEVASRGVIFSNAYVGCPLSQPSRAALWSGMMPHQTNVRSNSSEPVNTRLPENVPTLGSLFSESGYEAVHFGKTHDMGSLRGFKHKEPVAKPFTDPEFPVNNDSFLDVGTCEDAVAYLSNPPKEPFICIADFQNPHNICGFIGENAGVHTDRPISGPLPELPDNFDVEDWSNIPTPVQYICCSHRRMTQAAHWNEENYRHYIAAFQHYTKMVSKQVDSVLKALYSTPAGRNTIVVIMADHGDGMASHRMVTKHISFYDEMTNVPFIFAGPGIKQQKKPVDHLLTQPTLDLLPTLCDLAGIAVPAEKAGISLAPTLRGEKQKKSHPYVVSEWHSEYEYVTTPGRMVRGPRYKYTHYLEGNGEELYDMKKDPGERKNLAKDPKYSKILAEHRALLDDYITRSKDDYRSLKVDADPRCRNHTPGYPSHEGPGAREILKRK”, the “soluble on expression in E. coli” value was “soluble”.

As for “MVLSRHVIITPCPDRPGTSILFSAKRGALILVDDELLAAIGAGGLDADEEQTLAELGFLVPDHDSEQQEMCSFVDESNRASRSFAALIILNLSCNLACSYCFEGNRRGAHFMDDDTADRLVAYLVSGPVAEGRSLSLRFYGGEPLLSVPTIRRIARPLKKVMDARGLSFSFSLTTNGTLLTRELVEELIPLGLVGATVTLDGPPDIHDAARPFVGGEGSFSVIFANLKAVADLIALEIGGNFTPETYREYPRLFDLLVAEGLGPERLALVRFNAVMSAGENRALPEFTGGCASVNEPWLKDATLFIREELLRRGFPAPGLSPHYCAIEAEDSLIVNHDGTFYRCPAFIGIEGLAAGSLDDGLSDHAASHGLGAWKNEECLSCAYLPLCFGGCRYYGYLEHGRIDRVSCGRDLFDAIVGPFLALEVKYRHQPGEDASDTDGDSD”, the “soluble on expression in E. coli” value is given as “not soluble”.

Regarding “AKGEVWEAKPVGAAALPQWIRGRLDKIGLGIEADALALFAERVEGNLLAARQEIDKLGLLYPKGHTVNIDEAQTAVANVARFDAFQLAGAWMKGDVLRVCRLLDGLREEGEEPVLLLWAVAEDVRTLIRLAAALKQGQSIQSVRNSLRLWGDKQTLAPLAVKRISVVRLLDALKTCAQIDRIIKGAEDGDAWTVFKRLVVSLAE”, the “soluble on expression in E. coli” value was “soluble”.

As to “MDIRYFGTTPRYSEAVGANGLIFLSGMVPENGETAAEQTADVLAQIDRWLAECGSDKAHVLDAVIYLRDMGDYAEMNGVWDAWVAAGRTPARACVEARLARPEWRVEIKITAVKRDAATA”, the “soluble on expression in E. coli” value was “not soluble”.

With “MSLGKEAEMNYPTDEKNFFQILEEQLSYFKINKKIKEICIFIINNLDKKGYLELSKIEIKDILEVSNKELEEAFDIIHNLEPYGIGAYSLEECLKIQLKAKKIIEEKLSLFIDNYLYLLADKKYDLIKEKLNINDNILFSYIDIIKSLNPIPSRGYSVGKVRKIIPDVLVEIKKNEIFYEINRASIPQINVKDKIEDKYYKKINEIISCIEKRFETIDKIMKIIIREQKIFFTSQGKKINTLKISDIADKLNLSPSTVSRAVKEKYIKTNFGIISLRKLFNLDSAVFLYQQKILEYIENENKENPISDQDIVNLLEKDGIKIARRTVTKYREKLGYKSSHKRKKYEGHHHHHH”, the “soluble on expression in E. coli” value was “not soluble”.

For “MQKIALCITGASGVIYGIKLLQVLEELDFSVDLVISRNAKVVLKEEHSLTFEEVLKGLKNVRIHEENDFTSPLASGSRLVHYRGVYVVPCSTNTLSCIANGINKNLIHRVGEVALKERVPLVLLVREAPYNEIHLENMLKITRMGGVVVPASPAFYHKPQSIDDMINFVVGKLLDVLRIEHNLYKRWRG”, the “soluble on expression in E. coli” value is listed as “soluble”.

With “AHHHHHHGSKAFISIDLEGLPYIVSREHLFVKGALYNEARKIATKIAKIAAEKLHEEGFEEIVIADSHGPMVNIIPEEMPSYVSIVRGFPRPLSMVAFGKGSDIAIFLGYHAKAGTSFATFDHTYSGATIDKIIISGIEVSEFLLNSMVLGEWGVPIGLVAGDEALKEDLKYVPWAEFIPLKKASGRYSALSPSMEAIEKELKAGIKRAVEKLNNKELRAFKIETPVDVEIRFLNSAYAEVADLLPGVERIDGKTIRFTANTVEDAYKIMEVLTLAAAGVSYIVSR”, the “soluble on expression in E. coli” value was “not soluble”.

“GMNQAMDTKQIAPFTLALPEGEALPLVCDSPHSGTFYPADFGAVVAPERLRGGEDTHVDALWEAVPRVGGTLLAATFPRVYIDPNRMLDDIDPAQLEGPWPTPLAPGEKTRLGYGLIWSNVDAATPIYDRKLTVAEVQRRINRYYRPYHAALTEAVEGAYQRFGAVWHLNLHSMPNNAYERLKIQSPRPLADFVLGDRDGTTCEPGLVDLVERELREKGYTVARNDPYKGVQLIAQIGRPAERRNSLQIEIRRPLYMEEGTRERNEGFATLQRDLTLLTLRIAEYVRRGV”: the “soluble on expression in E. coli” value is “soluble”.

Regarding “GSTPITGPHIAYTEAVSDTQIMLKWTYIPSSNNNTPIQGFYIYYRPTDSDNDSDYKRDVVEGSKQWHMIGHLQPETSYDIKMQCFNEGGESEFSNVMICETK”, the “soluble on expression in E. coli” value was “soluble”.

“MSLTIFDNYEVWFVIGSQHLYGPETLRQVTQHAEHVVNALNTEAKLPCKLVLKPLGTTPDEITAICRDANYDDRCAGLVVWLHTFSPAKMWINGLTMLNKPLLQFHTQFNAALPWDSIDMDFMNLNQTAHGGREFGFIGARMRQQHAVVTGHWQDKQAHERIGSWMRQAVSKQDTRHLKVCRFGDNMREVAVTDGDKVAAQIKFGFSVNTWAVGDLVQVVNSISDGDVNALVDEYESCYTMTPATQIHGKKRQNVLEAARIELGMKRFLEQGGFHAFTTTFEDLHGLKQLPGLAVQRLMQQGYGFAGEGDWKTAALLRIMKVMSTGLQGGTSFMEDYTYHFEKGNDLVLGSHMLEVCPSIAAEEKPILDVQHLGIGGKDDPARLIFNTQTGPAIVASLIDLGDRYRLLVNCIDTVKTPHSLPKLPVANALWKAQPDLPTASEAWILAGGAHHTVFSHALNLNDMRQFAEMHDIEITVIDNDTRLPAFKDALRWNEVYYGFRREGHHHHHH”: the “soluble on expression in E. coli” value is given as “soluble”.

For “MAKTLGLHILADLYGVDADKIDRVEDIRELLEGAVKYANLTKISSHYYQFQPHGATGVVLLAESHISIHTWPEHGLATVDVYTCGDPSKAYRAMDYIITQLNPKRIDKQVHERGIVEEESNQSEAEKLRSILLQV”, the “soluble on expression in E. coli” value is on record as “soluble”.

For “MSLAQTQLSYKNKTYQISYEILGDLSLPQILILHGWGADKKLMKQSFCPFLKDFCQIYMDLAGFGNSSVEEILNTQDYANITELFLKQKKLNVCFFMGHSFGGKVSTLLAKEKDTLILLSSAGILAKKSLKVRFKIRIFKILKLFGLGKFYRYFASKDGANLSPIMYETFKKVVDEDFSEIFAKQKAKSLIFWGKSDEATPLYCGEKMHQFLKNSTFYPLEGDHFFFLKHSAFIAQKIKEEGHHHHHH”, the “soluble on expression in E. coli” value was “soluble”.

“MILINVKYQVRPEYVDTFLDEVKWFTDACRAEEGNLFFDWFKNPEKDNEFILVEGFKDGSDVAHVQSEAFQRACEEIPRYLLETPKIINVSIPGKTEWDTMAEFVVE”: the “soluble on expression in E. coli” value is “not soluble”.

Take “MRAVFRTDIGQIREHNEDSGGVFVNQSGQYLAVVADGMGGHRAGDVASSMAVAYLQERWEKESGLASPAEAEQWLKTQIASANEQLFRHALSHPECQGMGTTVVAAVCANSFATVAHIGDSRCYVLNKSGIQQLTDDHSLVNELVKSGQLSKEAAEHHPRKNVLLRALGTEPAVKIDVKTVALDEGDMLLLCSDGLSNKVPEADMIHILTGAGTLEEKAEALIQLANGRGGEDNISLAVIDVSAEREGG”: the “soluble on expression in E. coli” value is “not soluble”.

Consider “MENIHDLWERALKSMEKKVSKPSFETWLKQTKANSIEDSTIIITAPNEFARDWLEKHYDELISETIDDLTGVRLYPKFVIPTSQLDEPFVEQELKKPMKQPPAQNGEMPNNMLNDKYTFDTFVIGSGNRFAHAASLAVAEAPAKAYNPLFIYGGVGLGKTHLMHAIGHYVMDHNPNAKVVYLSSEKFTNEFINAIRDNKAVNFRNKYRNVDVLLIDDIQFLAGKEQTQEEFFHTFNALHEDNKQIVISSDRPPKEIPTLEDRLRSRFEWGLITDITPPDLETRIAILRKKAKAENLDIPNEVMLYIANQIDTNIRELEGALIRVVAYSSLINQDMNADLAAEALKDIIPNAKPRVLTITDIQKTVGEYFHVKLEDFKAKKRTKSVAFPRQIAMYLSRELTDASLPKIGSEFGGRDHTTVIHAHEKISKLLSTDQELQDKIQDISDKLRSLEHHHHHH”, for which the “soluble on expression in E. coli” value was “soluble”.

In the case of “MSLSEYLGNKEAKQQMLKTIIKDLHQGKDFNQVKADFQNLIKDIDASEIANMEQALIGEGMNPEEITKLCDVHAAVFRDALEENEKPNLILGHPMYTIKHENEEIKKALEELDNYFSSNQMDAFKDRLSFFRDNLDRHYSKKENILFPYLERHNITGPPSVMWSVDDEIRDMGKILLTRVKEGDAGAIKTAYETMKNKISEMIFKEENILTPMLLETLTEEEWAEIKQEDEEFGVVFSKPHGNFWQPKAVTTKNISFEPTGEALSLDTGFLTLEQINTILTNIPIDITFVDKDDTVRYFSQGRERIFVRTKSIIGRKVQNCHPPDSVHMVEKILSDFKHGKHSTAEFWLELAEKFIHIRYFALRDEQGHYVGTMEVSQDVTGIRSLEGERRLLQYEDEGHHHHHH”, the “soluble on expression in E. coli” value is on record as “soluble”.

“AIAGANEDQEMELEALRSIYEGDNSFRELSPVSFQYRIGEDGDPKAFLIEVSWTETYPQTAPVISMNAFFNNTISSAVKQSILAKLQEAVEVNLGTAMTYTLFEYAKDHKEQFMENHHPGNSATPVANIISVETPTTAPSSKKKEKKEQLSKAQKRKLADKTDHKGELPRGWNWVDVVKHLSKTGSKDDE”: the “soluble on expression in E. coli” value is “soluble”.

On to “MKLKIGIVCYPTVGGSGVVATELGKLLAERGHEIHFISSSMPFRLNKVYGNIYYHEVSVNQYSVFQYPPYDLALASKIAEVAKRERLDVLHAHYAVPHAVCAVLARQMVGELPIITTLHGTDITVLGYDPSLSDMIKFGIEQSDIVTAVSDALARQTYELLDVQATIHTVYNFVDERVYRRREAGHLRREYGIRDDERVVIHVSNFRKVKRVPDVVRAFAIVRRHVPAKLLLVGDGPEMTVVCRLVKELGLQDDVRFLGKQDKLEELYSISDVMMLLSEKESFGLVLLEAMACGVPCIGTAIGGIPEVIEDGKTGFLCPLGDVKEAARQAMALLTDCRLHAEMARQAVQTVERKFRSADIVGQYEQLYASLAARKVKR”, for which the “soluble on expression in E. coli” value is “not soluble”.

Turning to “MGHHHHHAYTLSKSGKEKEEVDEILEEEAEVDELKSPESVVQLLHIDPIEFEFGYGLIPLADANQGGDLLDRIVMIRRQLALELGLVIPVVRIRDNIALQPNEYRLKIKGNEVAKGELLLDHYLAMSPTPEDDLIEGIETVEPSFGLPAKWISEAVKDEADMLGYTVVDPASVVSTHITEKIKQHAHELIGRQETKQLIDHLKESYPVLVEEVTPNPLSVGDIQKVLAKLLKEKVSIRNLVTIFETLADYGKLTTDSDLLTEYTRQALAKQITAQFAKENEVLKVVTCSGRVEKAIADGVQQTEHGNYLSLEPDISESIVRSVAKEAEQLSLRQETAILLCSPPVRMYVKQLLERYFPDLPVLSYNELEANVEVQSIGVVDI”, the “soluble on expression in E. coli” value is reported as “soluble”.
